Laboratory results as given in patent US20040043420A1, “Method of identifying conformation-sensitive binding peptides and uses thereof” (priority 2003, published 2004).

T1: ER α (UniProt P03372 1-595, limits assumed)
T1 construct: also called estrogen receptor α; ERα-ERE
T1 sequence (looked up): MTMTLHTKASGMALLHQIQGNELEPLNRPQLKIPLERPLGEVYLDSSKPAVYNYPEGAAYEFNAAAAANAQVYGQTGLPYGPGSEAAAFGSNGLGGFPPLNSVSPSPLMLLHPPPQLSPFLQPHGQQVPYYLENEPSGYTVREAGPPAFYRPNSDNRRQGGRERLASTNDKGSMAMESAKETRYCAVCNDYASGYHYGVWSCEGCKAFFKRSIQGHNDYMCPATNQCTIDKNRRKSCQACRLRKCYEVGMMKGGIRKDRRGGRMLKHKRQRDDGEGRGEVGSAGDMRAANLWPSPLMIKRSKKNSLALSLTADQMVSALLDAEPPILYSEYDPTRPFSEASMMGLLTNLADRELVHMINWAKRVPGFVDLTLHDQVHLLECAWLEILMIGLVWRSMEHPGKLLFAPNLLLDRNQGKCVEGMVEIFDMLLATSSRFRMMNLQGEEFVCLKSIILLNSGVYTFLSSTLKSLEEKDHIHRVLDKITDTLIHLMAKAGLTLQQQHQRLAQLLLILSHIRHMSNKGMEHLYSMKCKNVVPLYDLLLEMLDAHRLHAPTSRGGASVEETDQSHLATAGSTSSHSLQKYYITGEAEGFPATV

T2: Gal4 transcriptional activation domain (AD) fused in frame with AR (yeast, UniProt P10275 1-920, limits assumed)
T2 sequence (looked up): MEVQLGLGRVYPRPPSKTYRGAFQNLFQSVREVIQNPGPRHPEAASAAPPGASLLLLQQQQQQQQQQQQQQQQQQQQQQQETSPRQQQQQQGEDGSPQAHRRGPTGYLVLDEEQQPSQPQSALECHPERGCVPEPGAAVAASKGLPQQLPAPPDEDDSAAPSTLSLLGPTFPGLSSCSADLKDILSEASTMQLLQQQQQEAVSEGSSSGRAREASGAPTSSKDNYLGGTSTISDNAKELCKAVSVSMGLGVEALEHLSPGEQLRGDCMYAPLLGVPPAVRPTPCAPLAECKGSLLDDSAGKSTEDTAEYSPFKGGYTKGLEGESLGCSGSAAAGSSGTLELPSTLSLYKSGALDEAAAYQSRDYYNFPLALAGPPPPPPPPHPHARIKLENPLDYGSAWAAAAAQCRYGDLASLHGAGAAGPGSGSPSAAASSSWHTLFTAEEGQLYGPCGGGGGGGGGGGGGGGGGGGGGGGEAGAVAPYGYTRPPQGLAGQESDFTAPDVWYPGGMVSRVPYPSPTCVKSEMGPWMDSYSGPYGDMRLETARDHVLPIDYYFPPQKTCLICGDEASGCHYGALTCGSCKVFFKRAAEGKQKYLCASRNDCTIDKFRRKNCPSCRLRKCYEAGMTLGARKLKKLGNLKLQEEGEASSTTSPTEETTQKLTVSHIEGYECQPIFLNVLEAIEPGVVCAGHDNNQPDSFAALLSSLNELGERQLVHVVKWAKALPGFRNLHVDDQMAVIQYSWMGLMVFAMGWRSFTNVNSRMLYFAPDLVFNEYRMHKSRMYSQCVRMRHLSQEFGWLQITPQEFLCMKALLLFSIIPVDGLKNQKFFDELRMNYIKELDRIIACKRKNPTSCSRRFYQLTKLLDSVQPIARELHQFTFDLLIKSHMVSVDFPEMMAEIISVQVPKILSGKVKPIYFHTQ


What was measured:
ER α = molecular target: T1, ER α; experiment: phage isolated on ERα-ERE; Estradiol
[1] = molecular target: T2, Gal4 transcriptional activation domain …; experiment: cell-based or functional assay

binding result (ER α)	β-galactosidase activity (yeast two-hybrid), MPA [1]	β-galactosidase activity (yeast two-hybrid), Test [1]	Binder
binds			SSTGILWKLLTAESR [3E]
binds			HSHPHHSHLLYKLMGG [E1-3]
binds			HSHPLPPLLSRLLTGG [E1-4]
binds			HSHNHHSPWLFRLLGG [E1-1]
	1.31	2.44	B23H12 (peptide) MKLLSSIEQACDICRLKKLKCSKEKPKCAKCLKNNWECRYSPKTKRSPLTRAHLTEVESRLERLEQLFLLIFPREDLDMILKMDSLQDIKALLTGLFVQDNVNKDAVTDRLASVETDMPLTLRQHRISATSSSEESSNKGQRQLTVSEFPELLAMTRWGRHAALLEPQRLPPPRTTTQPQTEFERMFFFTRPMRTTGLLDLQPS
binds			SSHGILWRLLSEGSR [9E]
binds			SRSPILTHLLSLGSR [2E]
binds			SRLTCLLQSNGWDSEQCSR [E1-7]
